Several values for one entry are separate records, joined by “and”; a condition that tells them apart may be missing. Equal entries are not always repeated.

The experiment deals with sfpCHIR-AB1, soluble fusion protein of the extracellular region of CHIR-AB1 and human IgG-Fc (chicken). Nature of the experiment: SPR; 90RU of purified sfpCHIR-AB1 immobilised on a CM5 sensor surface; purified IgY-Fc (Fcυ2–4) mutants 25–400 nM flowed over; Biacore 3000; 1:1 binding model. Background: SPR reads the build-up and loss of mass on a sensor chip optically.
For orientation: koff means a measure of how fast the partners let go of each other. Read a low koff as a long-lived complex. The term kon denotes a measure of how fast the partners come together. Read a low kon as slower complex formation. Turning to “chicken IgY-Fc (Fcυ2–4) E437H/L440R (domain or fragment)”, the Ka came to 1.8e+08 M⁻¹, the koff was determined as 0.0021 s⁻¹ and the kon was 380000 M⁻¹ s⁻¹.

The substance “chicken IgY-Fc (Fcυ2–4) F557R (domain or fragment)” gave a Ka of 7.3e+07 M⁻¹, a koff of 0.013 s⁻¹ and a kon of 920000 M⁻¹ s⁻¹.

The substance “chicken IgY-Fc (Fcυ2–4) H495E (domain or fragment)” yielded a Ka of 1.1e+08 M⁻¹, a koff of 0.0015 s⁻¹ and a kon of 170000 M⁻¹ s⁻¹.

The substance “chicken IgY-Fc (Fcυ2–4) N376D (domain or fragment)” had a Ka of 2e+08 M⁻¹, a koff of 0.0021 s⁻¹ and an association rate constant (kon) of 410000 M⁻¹ s⁻¹.

In turn, “chicken IgY-Fc (Fcυ2–4) R490E (domain or fragment)” returned a Ka of 4.5e+08 M⁻¹, an off-rate constant (koff) of 0.00051 s⁻¹ and an on-rate constant (kon) of 230000 M⁻¹ s⁻¹.

Consider “chicken IgY-Fc (Fcυ2–4) R496E (domain or fragment)”, for which the Ka is 1.8e+08 M⁻¹, the koff stood at 0.0013 s⁻¹ and the on-rate (kon) was determined as 220000 M⁻¹ s⁻¹.

As to “chicken IgY-Fc (Fcυ2–4) R556E (domain or fragment)”, the Ka was 9.3e+06 M⁻¹, the koff worked out at 0.0011 s⁻¹ and the kon amounted to 11000 M⁻¹ s⁻¹.

Substance “chicken IgY-Fc (Fcυ2–4) S346D/C347P/S348R/P349G (domain or fragment)” gave a Ka of 9.5e+07 M⁻¹, a koff of 0.0044 s⁻¹ and a kon of 420000 M⁻¹ s⁻¹.

For “chicken IgY-Fc fragment containing heavy chain constant domains 2, 3 and 4 (Fcυ2–4), wild type (domain or fragment)”, the Ka is 2.1e+08 M⁻¹ and 1.4e+08 M⁻¹; the koff was 0.0012 s⁻¹ and 0.0021 s⁻¹; the kon is 300000 M⁻¹ s⁻¹ and 260000 M⁻¹ s⁻¹.
